One may read the Kd as the equilibrium constant for the complex coming apart.

Assay [1] concerns the target T1, neonatal Fc receptor (FcRn), endogenous in U937 cells (human, UniProt P55899 24-365; P61769 21-119).
T1 construct: whole, on cells; Free FcRn was stained intracellularly after fixation and permeabilisation
The assay can be described thus: cell-based FcRn occupancy assay on U937 cells, flow cytometry; free FcRn stained with anti-FcRn-Fab AF647.

Assay [2] has as its target T2, cynomolgus monkey serum albumin (cynomolgus monkey, UniProt A2V9Z4 25-608).
T2 construct: Immobilised on SPR chips; also called cynoSA; cynomolgus albumin
The assay can be described thus: screening by ELISA/Biacore. In general terms: ELISA stands for enzyme-linked immunosorbent assay.

In another assay the target is T3, mouse serum albumin (mouse, UniProt P07724 25-608).
T3 construct: Immobilised on SPR chips; also called mouseSA; MSA
The assay can be described thus: screening by ELISA/Biacore.

Assay [3] deals with T4, isolated domain II of serum albumin (UniProt P02768 213-409, limits assumed).
T4 construct: domain: DII; also called isolated DII
Kind of assay: screening by ELISA/Biacore.

For assay [4], the target named is T5, human serum albumin (human, UniProt P02768 25-609).
T5 construct: Immobilised on SPR chips; also added in solution in the FcRn occupancy assays; also called HSA; humanSA
Kind of assay: SPR Biacore 8K+ SCK, albumin on chip, pH 7.4. For orientation: In SPR one partner is held on a chip, and binding of the other changes the refractive index at the surface.

Assay [5] addresses T2, cynomolgus monkey serum albumin. Kind of assay: SPR Biacore 8K+ SCK, albumin on chip, pH 7.4.
In assay [6] the target is T5, human serum albumin. Kind of assay: SPR Biacore 8K+ SCK, albumin on chip, pH 5.5.
Assay [7] addresses T2, cynomolgus monkey serum albumin. The assay can be described thus: SPR Biacore 8K+ SCK, albumin on chip, pH 5.5.
Assay [8] has the same target. Kind of assay: SPR Biacore 8K+ SCK, albumin on chip, pH 7.4. This is another data set of the same source.
Assay [9] concerns the target T5, human serum albumin. The assay can be described thus: SPR Biacore 8K+ SCK, albumin on chip, pH 7.4; pH 7.4.

T1 sequence (P55899 24-365 limits assumed, chain 1 of 2): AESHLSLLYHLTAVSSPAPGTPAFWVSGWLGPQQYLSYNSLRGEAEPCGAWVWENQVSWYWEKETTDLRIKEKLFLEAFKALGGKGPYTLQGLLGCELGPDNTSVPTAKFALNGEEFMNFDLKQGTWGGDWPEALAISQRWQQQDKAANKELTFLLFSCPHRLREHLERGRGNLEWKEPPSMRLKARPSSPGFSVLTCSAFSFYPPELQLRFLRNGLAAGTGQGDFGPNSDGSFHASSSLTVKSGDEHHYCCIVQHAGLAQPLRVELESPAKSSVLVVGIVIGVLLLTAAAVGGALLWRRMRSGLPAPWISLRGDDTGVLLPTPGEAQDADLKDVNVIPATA
T1 sequence (P61769 21-119 limits assumed, chain 2 of 2): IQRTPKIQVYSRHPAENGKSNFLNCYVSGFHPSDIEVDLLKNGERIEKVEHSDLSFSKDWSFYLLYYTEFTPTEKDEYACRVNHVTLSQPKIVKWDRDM

B1: mAb37-OA-ABDEG (antibody, human IgG1, kappa)
heavy: QVQLVQSGAEVMKPGSSVKVSCKASGYTFSWYHLEWVRQAPGHGLEWMGEIDPGTFTTNYNEKFKARVTFTADTSTSTAYMELSSLRSEDTAVYYCARFSHFSGSNHDYFDYWGQGTLVTVSSASTKGPSVFPLAPSSKSTSGGTAALGCLVKDYFPEPVTVSWNSGALTSGVHTFPAVLQSSGLYSLSSVVTVPSSSLGTQTYICNVNHKPSNTKVDKKVEPKSCDKTHTCPPCPAPELLGGPSVFLFPPKPKDTLYITREPEVTCVVVDVSHEDPEVKFNWYVDGVEVHNAKTKPREEQYNSTYRVVSVLTVLHQDWLNGKEYKCKVSNKALPAPIEKTISKAKGQPREPQVYTLPPSRDELTKNQVSLWCLVKGFYPSDIAVEWESNGQPENNYKTTPPVLDSDGSFFLYSKLTVDKSRWQQGNVFSCSVMHEALKFHYTQKSLSLSPG
light: EIVMTQSPATLSVSPGERATLSCRASQSIGTNIHWYQQKPGQAPRLLIYYASESISGIPARFSGSGSGTEFTLTISSLQSEDFAVYYCQQSWSWPTTFGGGTKVEIKRTVAAPSVFIFPPSDEQLKSGTASVVCLLNNFYPREAKVQWKVDNALQSGNSQESVTEQDSKDSTYSLSSTLTLSKADYEKHKVYACEVTHQGLSSPVTKSFNRGEC
chain: DKTHTCPPCPAPELLGGPSVFLFPPKPKDTLYITREPEVTCVVVDVSHEDPEVKFNWYVDGVEVHNAKTKPREEQYNSTYRVVSVLTVLHQDWLNGKEYKCKVSNKALPAPIEKTISKAKGQPREPQVYTLPPSRDELTKNQVSLSCAVKGFYPSDIAVEWESNGQPENNYKTTPPVLDSDGSFFLVSKLTVDKSRWQQGNVFSCSVMHEALKFHYTQKSLSLSPG
notes: it is not used here as a chain; also called one-armed NT-mAb37 Fab attached to Fc-ABDEG via natural hinge region
In the case of B1, in assay [1], the “IC50 (read off the curve)” value was approximately 1 nM.

B2: 2H11 (VHH)
VHH: ELQVVESGGGLVQAGGSLRLSCAASGRTFRSNTMGWFRQAPGKEREFVAAITWSGGTTYYADSVKGRFAISGDNAKNTVYLQMNSLKPEDTAVYYCAAEGPKWEPWNGIYHPADFGSWGQGTQVTVSS
notes: Clone from llama phage display libraries; also called 2H11 parental VHH; clone 2H11
Turning to B2, the binding result (in assay [2]; with mouse serum albumin; in assay [3]) was “no binding” each time.

B3: Alb23 (VHH)
VHH: EVQLLESGGGLVQPGGSLRLSCAASGFTFRSFGMSWVRQAPGKGPEWVSSISGSGSDTLYADSVKGRFTISRDNSKNTLYLQMNSLRPEDTAVYYCTIGGSLSRSSQGTLVTVSS
notes: VHH alone, injected in solution; also called VHH-Alb23_Parental (#1); Alb23 parental
Regarding B3, the Kd was determined as 2.37 nM with human serum albumin [4]; 2.68 nM in assay [5]; 1.42 nM with human serum albumin [6]; 1.32 nM in assay [7]; 2.68 nM in assay [8]; 2.37 nM with human serum albumin [9].

These data come from US20260152573A1 (ARGENX, published 2026).
